This note sets out measurements from patent publication US20260297172 (published 2026).

The labels stand for the following.
T1: S100A8 (human, UniProt P05109)
T1 chain: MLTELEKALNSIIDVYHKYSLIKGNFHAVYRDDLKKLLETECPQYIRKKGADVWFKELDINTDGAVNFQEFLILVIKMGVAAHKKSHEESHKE

T2: S100A9 (human, UniProt P06702)
T2 chain: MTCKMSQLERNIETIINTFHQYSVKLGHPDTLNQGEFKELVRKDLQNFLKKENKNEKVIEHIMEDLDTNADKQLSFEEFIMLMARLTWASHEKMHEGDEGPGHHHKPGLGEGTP

T3: S100A8/A9 (human, UniProt P05109)
T3 chain 1: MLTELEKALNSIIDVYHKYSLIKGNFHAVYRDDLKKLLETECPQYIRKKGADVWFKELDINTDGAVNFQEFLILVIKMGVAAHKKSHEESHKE
T3 chain 2: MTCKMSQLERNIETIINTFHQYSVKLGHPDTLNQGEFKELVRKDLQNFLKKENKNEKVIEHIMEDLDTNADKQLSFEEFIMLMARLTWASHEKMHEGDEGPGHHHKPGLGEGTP

B1: 6C8 (antibody, V domains shown)
VH: QEQLVESGGGLVTLGGSLKLSCKASGIDFSIYGISWVRQAPGKGLEWIAYIYPDYSTTDYASWVNGRFTISFDNAQNTVFLEMTSLTAADTATYFCARRYSGYYGLWGPGTLVTVSS
VL: ALVMTQTPSSVSAPVGGTVTIKCQASQSISSYLAWYQQKPGQRPKLLIYGASSLESGVPSRFKGSGSGTEYTLTISDLECDDAATYYCQGAHAGSSADAFGGGTEVVVKG
B2: 14G9 (antibody, V domains shown)
VH: QEQLVESGGGLVQPEGSLTLTCTASGFSFSSDYYMCWVRQAPGKGLEWIACIGGGYGGSPYYATWAKGRFTISKTSSTAVTLQMTSLTAADTATHFCARGVPGSSCFFDLWGPGTLVTVSS
VL: DVAMTQTPASVSEPVGGTVTIKCQASQSIGSSLAWYQQKSGQPPKLLIYDAFDLASGVSSRFKGSGSGTEYTLTISDLECADAATYFCLGGYYDANTFGGGTEVVVKG
B3: 8H6 (antibody, V domains shown)
VH: CQSLEESGGDLVKPEGSLTLTCKASGFSFSSGCWVCWVRQAPGKGLEWIACIYTGDGDTYYANWARGRFTVSRTSSTTVTLQLTSLTAADTATYFCASPQPGDITYLGFWGPGTLVTVSS
VL: DIVMTQTPASVSEPVGGTVTIKCQASQNINSYLSWYQQRPGQPPKLLISLASDLASGVPSRFKGSESGTDYTLTISDLECADAATYYCQGYFADSGSSGRSWAFGGGTEVVVQG
B4: 8H6-mIgG2a (antibody, V domains shown)
VH: CQSLEESGGDLVKPEGSLTLTCKASGFSFSSGCWVCWVRQAPGKGLEWIACIYTGDGDTYYANWARGRFTVSRTSSTTVTLQLTSLTAADTATYFCASPQPGDITYLGFWGPGTLVTVSS
VL: DIVMTQTPASVSEPVGGTVTIKCQASQNINSYLSWYQQRPGQPPKLLISLASDLASGVPSRFKGSESGTDYTLTISDLECADAATYYCQGYFADSGSSGRSWAFGGGTEVVVQG
B5: 6C8-mIgG2a (antibody, V domains shown)
VH: QEQLVESGGGLVTLGGSLKLSCKASGIDFSIYGISWVRQAPGKGLEWIAYIYPDYSTTDYASWVNGRFTISFDNAQNTVFLEMTSLTAADTATYFCARRYSGYYGLWGPGTLVTVSS
VL: ALVMTQTPSSVSAPVGGTVTIKCQASQSISSYLAWYQQKPGQRPKLLIYGASSLESGVPSRFKGSGSGTEYTLTISDLECDDAATYYCQGAHAGSSADAFGGGTEVVVKG
B6: 8H6-HC (antibody, V domains shown)
VH: CQSLEESGGDLVKPEGSLTLTCKASGFSFSSGCWVCWVRQAPGKGLEWIACIYTGDGDTYYANWARGRFTVSRTSSTTVTLQLTSLTAADTATYFCASPQPGDITYLGFWGPGTLVTVSS
VL: DIVMTQTPASVSEPVGGTVTIKCQASQNINSYLSWYQQRPGQPPKLLISLASDLASGVPSRFKGSESGTDYTLTISDLECADAATYYCQGYFADSGSSGRSWAFGGGTEVVVQG
B7: ROIS-2 (antibody, V domains shown)
VH: NVQLVESGGGLIHPGGSLSLSCKASGFSFSSGCWVCWVRQAPGKGLEWVACIYTGDGDTYYADSVKGRFTISRTSSKTTVYLQMNSLRAEDTAVYYCASPQPGDITYLGFWGQGTLVTVSS
VL: DIHMTQSPSSLSASVGDTVTITCQASQNINSYLSWYQQKPGKAPKLLISLASDLASGVPSRFSGSESGTDYTLTISSLQPEDFATYYCQGYFADSGSSGRSWAFGQGTKVEIKR
B8: ROIS-4 (antibody, V domains shown)
VH: QVSLEESGGDLVQPGGSLRLACVASGFSFSSGCWVCWVRQAPGKGLEWVSCIYTGDGDTYYANSVRGRFTVSRKNSTTSVYLQMNSLRADDTALYFCASPQPGDITYLGFWGPGTLVTVSS
VL: DIHMTQSPSSLSASVGDTVTITCQASQNINSYLSWYQQKPGKAPKLLISLASDLASGVPSRFSGSESGTDYTLTISSLQPEDFATYYCQGYFADSGSSGRSWAFGQGTKVEIKR
B9: ROIS-1 (antibody, V domains shown)
VH: NVQLVESGGGLIHPGGSLSLSCKASGFSFSSGCWVCWVRQAPGKGLEWVACIYTGDGDTYYADSVRGRFTISRTSSKTTVYLQMNSLRAEDTAVYYCASPQPGDITYLGFWGQGTLVTVSS
VL: DIHMTQSPSSLSASVGDTVTITCQASQNINSYLSWYQQEPGKAPKLLISLASDLASGVPSRFSGSESGTDYTLTISSLQPEDFATYYCQGYFADSGSSGRSWAFGQGTKVEIKR
B10: ROIS-5 (antibody, V domains shown)
VH: QVSLEESGGDLVQPGGSLRLACVASGFSFSSGCWVCWVRQAPGKGLEWVSCIYTGDGDTYYANSVRGRFTVSRRNSTTSVYLQMNSLRADDTALYFCASPQPGDITYLGFWGPGTLVTVSS
VL: DIHMTQSPSSLSASVGDTVTITCQASQNINSYLSWYQQKPGKAPKLLISLASDLASGVPSRFSGSESGTDYTLTISSLQPEDFATYYCQGYFADSGSSGRSWAFGQGTKVEIKR
B11: ROIS-3 (antibody, V domains shown)
VH: QVSLEESGGDLVQPGGSLRLACVASGFSFSSGCWVCWVRQAPGKGLEWVSCIYTGDGDTYYANSVRGRFTVSRQNSTTSVYLQMNSLRADDTALYFCASPQPGDITYLGFWGPGTLVTVSS
VL: DIHMTQSPSSLSASVGDTVTITCQASQNINSYLSWYQQKPGKAPKLLISLASDLASGVPSRFSGSESGTDYTLTISSLQPEDFATYYCQGYFADSGSSGRSWAFGQGTKVEIKR

The target in the first assay is T1, S100A8. The assay is described as follows: ELISA. (In general: ELISA stands for enzyme-linked immunosorbent assay.)
Turning to B1, the binding result is “no binding”.
As to B2, the binding result is recorded as “no binding”.

A further assay has as its target T2, S100A9. The assay can be described thus: ELISA.
Turning to B3, the binding result was “no binding”.
With B2, the binding result was “no binding”.

In the next assay the target is T3, S100A8/A9. The assay is described as follows: competition ELISA, blocking CD69 binding.
On to B4, for which the IC50 (in general, the concentration that inhibits the measured activity by half) was around 1.25 µg/mL.
Take B5: the IC50 is around 2.5 µg/mL.

The next assay addresses T3, S100A8/A9. The assay is described as follows: BLI. For orientation: In BLI a coated tip is dipped into the sample, and binding shifts an interference pattern.
For the molecule B6, binding was put at a Kd of 1.37 nM.
As for B7, binding was put at a Kd of 0.608 nM.
Consider B8, for which the affinity, expressed as Kd, was 1.76 nM.
On to B9, for which the Kd (commonly the constant that tells how readily two partners part at equilibrium) is 0.789 nM.
Molecule B10 registered a dissociation constant (Kd) of 0.623 nM.
Still for that read-out and setting: in the case of B11 it was 0.0477 nM.
